Laboratory results from IntAct's records for PubMed 10704439.

B1: Spindle assembly checkpoint component MAD3 (Saccharomyces cerevisiae), P47074 (parent)
chain: MKAYAKKRISYMPSSPSQNVINFEEIETQKENILPLKEGRSAAALSKAIHQPLVEINQVKSSFEQRLIDELPALSDPITLYLEYIKWLNNAYPQGGNSKQSGMLTLLERCLSHLKDLERYRNDVRFLKIWFWYIELFTRNSFMESRDIFMYMLRNGIGSELASFYEEFTNLLIQKEKFQYAVKILQLGIKNKARPNKVLEDRLNHLLRELGENNIQLGNEISMDSLESTVLGKTRSEFVNRLELANQNGTSSDVNLTKNNVFVDGEESDVELFETPNRGVYRDGWENFDLKAERNKENNLRISLLEANTNLGELKQHEMLSQKKRPYDEKLPIFRDSIGRSDPVYQMINTKDQKPEKIDCNFKLIYCEDEESKGGRLEFSLEEVLAISRNVYKRVRTNRKHPREANLGQEESANQKEAEAQSKRPKISRKALVSKSLTPSNQGRMFSGEEYINCPMTPKGRSTETSDIISAVKPRQLTPILEMRESNSFSQSKNSEIISDDDKSSSSFISYPPQR
partner: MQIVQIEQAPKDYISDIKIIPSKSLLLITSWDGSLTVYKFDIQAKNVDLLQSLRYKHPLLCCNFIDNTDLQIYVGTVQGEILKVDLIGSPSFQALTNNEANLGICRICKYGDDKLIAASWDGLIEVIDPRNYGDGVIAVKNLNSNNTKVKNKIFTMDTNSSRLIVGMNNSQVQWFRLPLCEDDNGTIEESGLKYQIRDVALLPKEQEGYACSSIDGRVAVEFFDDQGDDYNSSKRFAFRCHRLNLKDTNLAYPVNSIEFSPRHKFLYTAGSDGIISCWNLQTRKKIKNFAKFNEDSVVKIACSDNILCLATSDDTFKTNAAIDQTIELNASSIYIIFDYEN

Variants of: B1
Details: with bub3_yeast BUB3, P26449

Variant | effect of a mutation on the interaction
E382K | decreasing interaction
